Experiment [1] concerns the target T1, glutathione S-transferase (UniProt P08515 1-218 = GST).
T1 construct: Expressed in E. coli, purified on GSH resin; also called GST
The experiment is described as follows: indirect ELISA, GST coated.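 Note: nanobody dilution series starting at 10 µM binding plate-bound antigen, HRP anti-His or anti-T7 tag detection, TMB absorbance at 450 nm, logIC50 from four-parameter logistic fit.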
Procedure: Indirect ELISA was carried out to evaluate the camelid immune response of an antigen and to quantify the relative affinities of antigen-specific Nbs. An antigen was coated onto a 96-well ELISA plate (R&D system) at an amount of approximately 1-10 ng per well in a coating buffer (15 mM sodium carbonate, 35 mM sodium bicarbonate, pH 9.6) overnight at 4° C. The well surface was then blocked with a blocking buffer (DPBS, 0.05% Tween 20, 5% milk) at room temperature for 2 hours. To test an immune response, the immunized serum was serially 5-fold diluted in the blocking buffer. The diluted sera were incubated with the antigen coated wells at room temperature for 2 hours. HRP-conjugated secondary antibodies against llama Fc (Bethyl) were diluted 1:10,000 in the blocking buffer and incubated with each well for 1 hour at room temperature. […] Nbs of both specific binders for test and scramble negative controls were serially 10-fold diluted from 10 μM to 1 μM in the blocking buffer. HRP-conjugated secondary antibodies against His-tag (Genscript) or T7-tag (Thermo) were diluted 1:5,000 or 1:10,000 in the blocking buffer and incubated for 1 hour at room temperature. Three washes with 1x PBST (DPBS, 0.05% Tween 20) were carried out to remove nonspecific absorbance between incubations. After the final wash, the samples were further incubated under dark with freshly prepared w3,3′,5,5′-Tetramethylbenzidine (TMB) substrate for 10 mins at room temperature to develop the signals. After the STOP solution (R&D system), the plates were read at multiple wavelengths (450 nm and 550 nm) on a plate reader (Multiskan GO, Thermo Fisher). A false positive Nb binder was defined if any of the following two criteria was met: i) the ELISA signal can only be detected at a concentration of 10 μM and was under detected at 1 μM concentration. ii) At 1 μM concentration, a pronounced signal decrease (by more than 10-fold) was detected compared to the signal at 10 μM, while there were no signals can be detected at lower concentrations. The raw data was processed by Prism 7 (GraphPad) to fit into a 4PL curve and to calculate logIC50.

Experiment [2] deals with T1, glutathione S-transferase. Description: SPR, GST immobilised.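 Note: nanobody analytes injected as dilution series over three orders of magnitude across antigen on a CM5 chip, kinetics fitted by 1:1 Langmuir model, optionally with mass transfer, duplicate runs.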 On the technique in general: Surface plasmon resonance follows binding to a sensor surface in real time, without labels.
Procedure: Nb affinity measurement by SPR. Surface plasmon resonance (SPR, Biacore 3000 system, GE Healthcare) was used to measure Nb affinities. Antigen proteins immobilized on the activated CM5 sensor-chip by the following steps. Protein analytes were diluted to 10-30 μg/ml in 10 mM sodium acetate, pH 4.5, and were injected into the SPR system at 5 μl/min for 420 s. The surface of the sensor was then blocked by 1 M ethanolamine-HCl (pH 8.5). For each Nb analyte, a series of dilution (spanning three orders of magnitude) was injected in HBS-EP+ running buffer (GE-Healthcare) containing 2 mM DTT, at a flow rate of 20-30 μl/min for 120-180 s, followed by a dissociation time of 5-20 mins based on dissociation rate. Between each injection, the sensor chip surface was regenerated with the low pH buffer containing 10 mM glycine-HCl (pH 1.5-2.5), or high pH buffer of 20-40 mM NaOH (pH 12-13). The regeneration was performed with a flow rate of 40-50 μl/min for 30 s. The measurements were duplicated and only highly reproducible data was used for analysis. Binding sensorgrams for each Nb were processed and analyzed using BIAevaluation by fitting with 1:1 Langmuir model or 1:1 Langmuir model with mass transfer.

T1 sequence (P08515 whole entry): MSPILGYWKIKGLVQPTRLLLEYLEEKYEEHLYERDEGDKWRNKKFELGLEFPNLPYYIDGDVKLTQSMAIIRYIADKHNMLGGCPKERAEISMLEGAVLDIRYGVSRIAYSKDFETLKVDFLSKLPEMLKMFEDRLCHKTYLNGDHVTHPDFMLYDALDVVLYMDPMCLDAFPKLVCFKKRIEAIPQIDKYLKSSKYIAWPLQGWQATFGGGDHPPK

B1: G76 (VHH)
VHH: QVQLVESGGGLVQPGGSLRLSCVVSGFPFSEYAMSWVRQTPEKGREWVSGIYTDGSETLYENSVKGRFTISRDNTKNTLYLQMNNLKPEDTARYYCKLGDPYGVGLRDYEYLGHGTQVTVSS
Regarding B1, the binding result in experiment [1] is given as “no binding (tested: Nb titrated from 10 µM)”.

B2: G2 (VHH)
VHH: EVQLVESGGDLVQAGGSLRLSCSASGNIFKINDMGWYRQAPGKQRELVARISSSGNTNYADSVKGRFTISRDNGKNTVYLQMNRVKPEDTAVYYCNADVQVSRNYEYEYWGQGTQVTVSS
By Kd is commonly meant the equilibrium constant for the complex coming apart. Low readings indicate tighter binding, high ones weaker binding. Usually koff stands for the first-order rate constant of dissociation. Read a low koff as slow dissociation. On to B2, for which the “ELISA affinity (LogIC50 (oD450nm))” value in experiment [1] came out at 2.67. Also, in experiment [2], the Kd was determined as 2000 nM and the koff worked out at 0.00204 s⁻¹.

B3: G36 (VHH)
VHH: QMGRNSAQVQLVESGGSLRLSCAASGFALSNSYMKWVRQAPGKGPEWVSTIYADGSTYYTDSVKGRFITSRDNSKNTMYLQMSDLKPEDTAVYYCANPSAKGQGTQVTVSS
For the molecule B3, in experiment [1], the binding result is reported as “no binding (tested: Nb titrated from 10 µM)”.

B4: G46 (VHH)
VHH: DVQLVESGGGLVQAGGSLRLSCAASGRTFSRYHMGWFRQAPGKERDVVAAISWSGDSTYYADSVKGRFTISKDNAKNTVYLQMDNLKPEDTAVYYCNVRGGVLRPYDYWGQGTQVTVSS
Take B4: the binding result in experiment [1] is recorded as “no binding (tested: Nb titrated from 10 µM)”.

B5: G5 (VHH)
VHH: EVQLVESGGGVVQPGGSLTLSCAASGFAFRNYAMSWVRQAPGKGPEWVSQINGRGGYTSYADSVKGRFTISRDNTKNTLYLQMNNLKPDDTAVYYCAKDPTQLRWIPVPNYILGSTKGQGTQVTVSS
Consider B5, for which the binding result in experiment [1] is listed as “no binding (tested: Nb titrated from 10 µM)”.

B6: G85 (VHH)
VHH: HVQLVESGGGLVQPGGSLRLSCAASGFTFSTYAMGWVRQAPGKGPEWVATIYSKGDTTHYANSAKGRFTISRDNARNTLYLQMNSLKPEDTAVYYCAKGISDSYLRVESNYRGQGTQVTVSS
In the case of B6, in experiment [1], the binding result was “no binding (tested: Nb titrated from 10 µM)”.

B7: G6 (VHH)
VHH: QVQLVESGGGLVQAGGSLRLSCAASGRTISSYAMGWFRQAPGKERELVARITSSAGSTYYADSVKGRFTISRDNAKNTMYLQMNSLKPEDTAVYYCAVEIVRAQYDYWGQGTQVTVSS
On to B7, for which the binding result in experiment [1] was “no binding (tested: Nb titrated from 10 µM)”.

B8: G83 (VHH)
VHH: QVQLVESGGGLVQAGGSLRLSCAASRRTFSIYNMGWFRQAPGKEREFVATITRYGDRTYTADSVKGRFTISSDQAKNTVYLQMNSLNPHDTAVYYCAADSAYSGPDFKHYDYWGQGTQVTVSS
One may read the kon as the second-order rate constant of association. As for B8, in experiment [1], the “ELISA affinity (LogIC50 (oD450nm))” value stood at 8.72. In experiment [2], this molecule yielded a Kd of 0.761 nM, a koff of 0.000751 s⁻¹ and a kon of 987000 M⁻¹ s⁻¹.

B9: G29 (VHH)
VHH: QVQLVESGGGLVQAGDSLLLSCGTSGRTFSSNTMGWFRQAPGKGREFVATITASGRGTNYGDSVRGRFTISRDNDKNTVYLQMNNLKPDDTGVYTCAASDSPYGSRWIEAYGYWGQGTQVTVSS
As for B9, the binding result in experiment [1] is given as “no binding (tested: Nb titrated from 10 µM)”.

B10: G72 (VHH)
VHH: QVQLVESGGGLVQPGGSLRLSCATSGSTFSINGIGWYRQVPGIEREFVAGVSTDGKANYADSVAGRFTISINDGKNTAYLQMNSLKPEDTAVYYCNVDSTKGYYWGQGTQVTVSS
On to B10, for which, in experiment [1], the binding result is “no binding (tested: Nb titrated from 10 µM)”.

B11: G32 (VHH)
VHH: QVQLVESGGGLVRAGDSLRLSCVVSGRPISSYAMAWFRQAPGKDREVVAGISANGDRTHYADSIKGRFTVSRDNAKNSMTLQMNKLKPEDTAVYYCAADSLTEGGYGLTGDFDYWGQGTQVTVSS
Consider B11, for which, in experiment [1], the binding result is on record as “no binding (tested: Nb titrated from 10 µM)”.

B12: G82 (VHH)
VHH: HVQLVESGGGLVQAGGSLRLSCAASGKIFSLSTMGWYRQAPGKQRELVAALTSGGSTNYADSVKGRFTISRDNAKYTTYLQMNSLKPEDTAVYYCNVRYYSGYDGYESNSWGQGTQVTVSS
In the case of B12, the “ELISA affinity (LogIC50 (oD450nm))” value in experiment [1] stood at 7.22. In experiment [2], this molecule had a Kd of 0.504 nM, a koff of 0.000561 s⁻¹ and a kon of 1.11e+06 M⁻¹ s⁻¹.

B13: G38 (VHH)
VHH: EVQLVESGGGLVQAGGSLRLSCVASGHTDCISGMGWYRQAPGKERELVAVLIGGGNTYYGDSVKGRFTISKDKAKNTLYLQMKTLKPEDMAVYYCTADDHGSECPNKEMSSTATYWGQGTQVTVSS
As to B13, in experiment [1], the binding result is on record as “no binding (tested: Nb titrated from 10 µM)”.

B14: G7 (VHH)
VHH: QVQLVESGGGLVQPGDSLRLSCAVSGQYVNMAAMGWFRQAPGKEREFVAGISWSDDTDIADSVKGRFTISRDHGKNTVDLQMNSLKPEDTGVYLCAGRFRRLAKDFGEYDYWGQGTQVTVSS
As to B14, the “ELISA affinity (LogIC50 (oD450nm))” value in experiment [1] was determined as 1.89. In addition, in experiment [2], the Kd was found to be 268 nM, the koff was 0.000809 s⁻¹ and the kon is 3020 M⁻¹ s⁻¹.

B15: G81 (VHH)
VHH: EVQLVESGGELVQAGGSLRLSCAASGRTDSVTRMAWFRQAPGKEREFVAAITWSSGYTYYPDSVKGRFTISRDNAKNTMYLQMNSLKAEDTAVYICAAAVGVISEYNSWGQGTQVTVSS
B15: in experiment [1], the binding result is recorded as “no binding (tested: Nb titrated from 10 µM)”.

B16: G9 (VHH)
VHH: DVQLVESGGGLVQPGGSLRLSCAASGLTLDNYDMAWFRQAPGKEREFVTAINYVGGRTYADSVRGRFTISRDDTKNTVYLQMNSLKPEDTAVYYCAAGLQYGITSLRTRNYNYWGQGTQVTVSS
As for B16, the “ELISA affinity (LogIC50 (oD450nm))” value in experiment [1] came out at 8.05. In experiment [2], binding was characterised by a dissociation constant (Kd) of 0.177 nM, the koff was found to be 0.000353 s⁻¹ and the kon worked out at 2e+06 M⁻¹ s⁻¹.

B17: G87 (VHH)
VHH: EVQLVESGGGLVQAGDSLRLSCAASGRTFSSYNLGWFRQAPGKEREFVAVMNCRYGDTDYPDSVKGRFTMSRDNAKNTLYLEMNNLKPEDTAVYYCAAKVLAYCGSGYYYRRNDYGYWGQGTQVTVSS
In the case of B17, the binding result in experiment [1] is given as “no binding (tested: Nb titrated from 10 µM)”.

B18: G95 (VHH)
VHH: HVQLVESGGGLVQAGGSLRLSCAASGRTFSSYAMAWFRQAVGKEREFVAAVSRSGTNLYYADSVKGRFTISRDTAKNTMYLQMNSLKPEDTALYYCAAGEALRWGIGQQPRSEFFDYWGQGTQVTVSS
notes: also called G95(C2)
B18: the “ELISA affinity (LogIC50 (oD450nm))” value in experiment [1] came to 3.76. In experiment [2], binding was put at a Kd of 77 nM, the koff stood at 0.00107 s⁻¹ and the association rate constant (kon) was 13900 M⁻¹ s⁻¹.

B19: G33 (VHH)
VHH: QMGRNSAEVQLVESGGSLRLSCSVSGGPFTSNGMGWYRQAPGKEREWVAAITNSGSANYADSVKGRFTVSMVNANNTMYLQMNNLKPDDTAVYYCNVAGWPHGYWGQGTQVTVSS
Take B19: the binding result in experiment [1] is “no binding (tested: Nb titrated from 10 µM)”.

For the origin of these results see patent US20230176070A1 (published 2023).
